The values that follow are results of earlier work, collected in PMC6006206.

The term Kd denotes a measure of binding affinity in units of concentration.

The data set addresses SufE (UniProt A7ZME4).
Chain of UniProt A7ZME4 (A7ZME4 whole entry): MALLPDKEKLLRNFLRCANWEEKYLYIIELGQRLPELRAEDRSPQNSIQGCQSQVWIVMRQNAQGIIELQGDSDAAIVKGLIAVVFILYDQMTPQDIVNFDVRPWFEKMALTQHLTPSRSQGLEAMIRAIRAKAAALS

As for SufS (from UniProt A7ZME5), the dissociation constant (Kd) is 360 nM.
